The Kd is the concentration at which binding is half-saturated.

Test [1] deals with T1, HER2 (human, UniProt P04626). The experiment in a line: BLI, 30C, E. coli-expressed.
Test [2] has as its target T1, HER2. The experiment in a line: BLI, 30C, ExpiCHO-expressed. On the technique in general: BLI is a label-free optical method that tracks binding on a fibre tip over time.

B1: LH_S-C (antibody)
chain 1: EVQLVESGGGLVQPGGSLRLSVAASGFNIKDTYIHWVRQAPGKGLEWVARIYPTNGYTRYADSVKGRFTISADTSKNTAYLQMNSLRAEDTAVYYASRWGGDGFYCMDYWGQGTLVTVSS
chain 2: not shown
B1: the figures for the Kd with HER2 [1] and in the test with HER2 [2] were 1.5 nM and 0.28 nM, respectively.

(Values after patent US20260327336 (published 2026).)
